In PMC2120956:

Columns and labels:
[1] = biological target: embryonic breast muscle myosin isolated from d15 chick embryos (chicken) (UniProt P02565)
[2] = biological target: embryonic myosin isolated from primary culture myotubes (chicken) (UniProt P02565)

actin filament velocity, in vitro motility assay [1]: 3.8 um/s
actin filament velocity, in vitro motility assay [2]: 3.1 um/s
Substance: F-actin (from UniProt P68139 1-377) (natural protein)
